Test results as given in US20230279123A1 (REGENECORE BIOTECH, published 2023).
Blank lines part the entries; values can stand above or below the binder they belong to.

Tests used:
[1] = target: T1, IL-4Rα (receptor protein / antigen) (UniProt P24394 26-232, limits assumed); assay: competition ELISA: IL-4Rα coated, biotin-IL-4 at EC80 mixed with antibody dilutions, OD450
T1 construct: also called IL-4 receptor subunit α
Description: (§1) (3) A biotin-conjugated ligand protein (IL-4 or IL-5) was diluted to 2 times the EC80 concentration, and the antibody was diluted to 2 times the initial concentration, and 5-fold gradient dilution was carried out. The ligand protein, and the diluted antibody (dupilumab, 4E9V10-2B3V2, 4E9-V0 or 2B3 (SEQ ID NO. 25)) and hIgG respectively, were transferred at 1:1 into a new dispensing plate and mixed well.
(§2) (7) A stopping solution was added, and the values of samples in different wells were immediately read at the wavelength of 450 nm with a microplate reader and recorded as OD450. EC50 was calculated by plotting. 4E9-V0, non-humanized anti-[…] single domain antibody 2B3, dupilumab, reslizumab, and hIgG were used as controls, and the results are shown in Tables 6 and 7 and FIGS. 5 and 6, respectively.

IL-4Rα (on TF-1 cells) [2] = target: T2, IL-4Rα (on TF-1 cells) (UniProt P24394 26-825, limits assumed); assay: cell-based or functional assay
IL-4Rα (on TF-1 cells) [3] = target: T2, IL-4Rα (on TF-1 cells); assay: cell-based or functional assay; remark: listed apart in the source
[4] = target: T1, IL-4Rα (receptor protein / antigen); assay: BLI (Octet 96), antibody loaded on sensor, antigen in solution
Description: (§3) Assay steps: Octet 96 and Data Acquisition software in the supporting computer were run. The bottom and sides of an acquisition probe were cleaned using a lens tissue with an appropriate amount of 75% ethanol, and the instrument was preheated for 15 min or more. Sensor pre-wetting: before the assay, the Sensor was soaked in the SD buffer for 10 min or more for later use. Then, the machine procedure was set according to: baseline→antibody→baseline→antigen binding→antigen dissociation→sensor regeneration for assay operation.

IL-4Rα (on TF-1 cells) [5] = target: T2, IL-4Rα (on TF-1 cells); assay: cell-based or functional assay; remark: listed apart in the source
IL-4Rα (on TF-1 cells) [6] = target: T2, IL-4Rα (on TF-1 cells); assay: cell-based or functional assay; remark: listed apart in the source
[7] = target: T1, IL-4Rα (receptor protein / antigen); assay: BLI (Octet 96), antibody loaded on sensor, antigen 200 nM and 2-fold dilutions in solution
Description: as §3

IL-5 [8] = target: T3, IL-5 (human, UniProt P05113 20-134); assay: cell-based or functional assay
IL-5 [9] = target: T3, IL-5; assay: competition ELISA: IL-5R coated, biotin-IL-5 at EC80 mixed with antibody dilutions, OD450
Description: as §1, §2

T3 sequence (P05113 20-134 limits assumed): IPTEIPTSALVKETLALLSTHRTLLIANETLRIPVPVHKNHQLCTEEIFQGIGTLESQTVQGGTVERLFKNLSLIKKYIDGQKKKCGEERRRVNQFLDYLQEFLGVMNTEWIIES

EC50 [1]: 0.00432 µM
B1: dupilumab (antibody, V domains shown)
VH: EVQLVESGGGLEQPGGSLRLSCAGSGFTFRDYAMTWVRQAPGKGLEWVSSISGSGGNTYYADSVKGRFTISRDNSKNTLYLQMNSLRAEDTAVYYCAKDRLSITIRPRYYGLDVWGQGTTVTVSS
VL: DIVMTQSPLSLPVTPGEPASISCRSSQSLLYSIGYNYLDWYLQKSGQSPQLLIYLGSNRASGVPDRFSGSGSGTDFTLKISRVEAEDVGFYYCMQALQTPYTFGQGTKLEIKR

EC50 of neutralizing IL-4-induced TF-1 proliferation (IL-4Rα (on TF-1 cells) [2]): 1880 µM
B2: humanized anti-IL-4Rα single domain antibody 4E9-V11 (VHH)
VHH: QVQLVESGGGLVQPGGSLRLSCAASGDFYCMAWFRQAPGKEREAVAIRSGGRSTYYADSVKGRFTISRDNSKNTLYLQMNSLKAEDTAVYYCAVGVDGNCRNYWGQGTLVTVSS

EC50 of neutralizing IL-4-induced TF-1 proliferation (IL-4Rα (on TF-1 cells) [2]): 0.185 µM
B3: humanized anti-IL-4Rα single domain antibody 4E9-V7 (VHH)
VHH: QVQLVESGGGLVQPGGSLRLSCAASGDFYCMAWFRQAPGKEREAVAIRSGGRSTYLADSVKGRFTISRDNSKNTLYLQMNSLKAEDTAVYYCAVGVDGNCRNYWGQGTLVTVSS

EC50 of neutralizing IL-13-induced TF-1 proliferation (IL-4Rα (on TF-1 cells) [3]): 0.000759 µM
Kd [4]: 0.00305 µM
koff [4]: 0.000506 s⁻¹
kon [4]: 166000 M⁻¹ s⁻¹
EC50 of neutralizing IL-4-induced TF-1 proliferation (IL-4Rα (on TF-1 cells) [2]): 0.000707 µM
B4: humanized anti-IL-4Rα single domain antibody 4E9-V6 (VHH)
VHH: QVQLVESGGGLVQPGGSLRLSCAASGDFYCMAWFRQAPGKEREAVATIRSGGRSTYYADSVKGRFTISRDNSKNTLYLQMNSLKAEDTAVYYCAVGVDGNCRNYWGQGTLVTVSS

EC50 of neutralizing IL-4-induced TF-1 proliferation (IL-4Rα (on TF-1 cells) [2]): 0.0521 µM
B5: humanized anti-IL-4Rα single domain antibody 4E9-V2 (VHH)
VHH: QVQLVESGGGLVQPGGSLRLSCAASGDFYCLGWFRQAPGQEREAVAAIRSGGRSTYYADSVKGRFTISRDNSKNTLYLQMNSLRAEDTAVYYCAVGVDGNCRNYWGQGTLVTVSS

EC50 of neutralizing IL-4-induced TF-1 proliferation (IL-4Rα (on TF-1 cells) [2]): 0.000752 µM
B6: humanized anti-IL-4Rα single domain antibody 4E9-V9 (VHH)
VHH: QVQLVESGGGLVQPGGSLRLSCAASGDFYCMAWFRQAPGKERERVATIRSGGRSTYYADSVKGRFTISRDNSKNTLYLQMNSLKAEDTAVYYCAVGVDGNCRNYWGQGTLVTVSS

EC50 of neutralizing IL-4-induced TF-1 proliferation (IL-4Rα (on TF-1 cells) [2]): 0.000746 µM
B7: humanized anti-IL-4Rα single domain antibody 4E9-V5 (VHH)
VHH: QVQLVESGGGLVQPGGSLRLSCAASGDFYCLGWFRQAPGQGLEAVAAIRSGGRSTYYADSVKGRFTISRDNSKNTLYLQMNSLRAEDTAVYYCAVGVDANCRNYWGQGTLVTVSS

EC50 of neutralizing IL-4-induced TF-1 proliferation (IL-4Rα (on TF-1 cells) [2]): 0.0138 µM
B8: humanized anti-IL-4Rα single domain antibody 4E9-V3 (VHH)
VHH: QVQLVESGGGLVQPGGSLRLSCAASGDFYCLGWFRQAPGQEREAVAAIRSGGRSTYYADSVKGRFTISRDNSKNTLYLQMNSLKAEDTAVYYCAVGVDGNCRNYWGQGTLVTVSS

EC50 of neutralizing IL-4-induced TF-1 proliferation (IL-4Rα (on TF-1 cells) [2]): 18600 µM
B9: humanized anti-IL-4Rα single domain antibody 4E9-V14 (VHH)
VHH: QVQLVESGGGLVQPGGSLRLSCAASGDFYCMAWFRQAPGKEREAVATIRSGGRSTYYADSVKGRFTISRDNSKNTLYLQMNSLRAEDTAVYYCAVGVDGNCRNYWGQGTLVTVSS

EC50 of neutralizing IL-13-induced TF-1 proliferation (IL-4Rα (on TF-1 cells) [3]): 0.00311 µM
EC50 of neutralizing IL-4-induced TF-1 proliferation (IL-4Rα (on TF-1 cells) [2]): 0.00277 µM
B10: humanized anti-IL-4Rα single domain antibody 4E9-V8 (VHH)
VHH: QVQLVESGGGLVQPGGSLRLSCAASGDFYCMAWFRQAPGKERERVAKIRSGGRSTYLADSVKGRFTISRDNSKNTLYLQMNSLKAEDTAVYYCAVGVDGNCRNYWGQGTLVTVSS

EC50 of neutralizing IL-13-induced TF-1 cell proliferation (IL-4Rα (on TF-1 cells) [5]): 0.000229 µM
EC50 of neutralizing IL-4-induced TF-1 cell proliferation (IL-4Rα (on TF-1 cells) [6]): 0.000281 µM
EC50 [1]: 0.00445 µM
B11: anti-IL-4Rα single domain antibody 4E9 (4E9-V0) (VHH)
VHH: QVQLVESGGGSVQAGGSLRLSCAASGDFYCMAWFRQAPGKEREGVATIRSGGRSTYYADSVKGRFTISKDNAKDTLYLQMNSLKPEDTAMYYCAVGVDGNCRNYWGQGTQVTVSS
notes: also called non-humanized antibody

EC50 of neutralizing IL-13-induced TF-1 proliferation (IL-4Rα (on TF-1 cells) [3]): 0.0042 µM
Kd [4]: 0.00341 µM
koff [4]: 0.000565 s⁻¹
kon [4]: 166000 M⁻¹ s⁻¹
EC50 of neutralizing IL-4-induced TF-1 proliferation (IL-4Rα (on TF-1 cells) [2]): 0.00452 µM
B12: humanized anti-IL-4Rα single domain antibody 4E9-V13 (VHH)
VHH: QVQLVESGGGLVQPGGSLRLSCAASGDFYCMAWFRQAPGKEREAVATIRSGGRSTYYADSVKGRFTISRDNSKNTVYLQMNSLKAEDTAVYYCAVGVDGNCRNYWGQGTLVTVSS

EC50 of neutralizing IL-13-induced TF-1 proliferation (IL-4Rα (on TF-1 cells) [3]): 0.00211 µM
Kd [4]: 0.0093 µM
koff [4]: 0.000268 s⁻¹
kon [4]: 28800 M⁻¹ s⁻¹
EC50 of neutralizing IL-4-induced TF-1 proliferation (IL-4Rα (on TF-1 cells) [2]): 0.00203 µM
B13: humanized anti-IL-4Rα single domain antibody 4E9-V12 (VHH)
VHH: QVQLVESGGGLVQPGGSLRLSCAASGDFYCMAWFRQAPGKEREAVATIRSGGRSTYLADSVKGRFTISRDNSKNTLYLQMNSLKAEDTAVYYCAVGVDGNCRNYWGQGTLVTVSS

EC50 of neutralizing IL-13-induced TF-1 proliferation (IL-4Rα (on TF-1 cells) [3]): 0.00018 µM
koff [4]: 0.000534 s⁻¹
kon [4]: 173000 M⁻¹ s⁻¹
EC50 of neutralizing IL-4-induced TF-1 proliferation (IL-4Rα (on TF-1 cells) [2]): 0.000271 µM
Kd [7]: 0.00308 µM
B14: humanized anti-IL-4Rα single domain antibody 4E9-V10 (VHH)
VHH: QVQLVESGGGLVQPGGSLRLSCAASGDFYCMAWFRQAPGKEREAVAAIRSGGRSTYYADSVKGRFTISRDNSKNTLYLQMNSLKAEDTAVYYCAVGVDGNCRNYWGQGTLVTVSS

EC50 of neutralizing IL-5-induced TF-1 cell proliferation (IL-5 [8]): 0.000122 µM
EC50 (IL-5 [9]): 0.00621 µM
B15: reslizumab (antibody, V domains shown)
VH: EVQLVESGGGLVQPGGSLRLSCAVSGLSLTSNSVNWIRQAPGKGLEWVGLIWSNGDTDYNSAIKSRFTISRDTSKSTVYLQMNSLRAEDTAVYYCAREYYGYFDYWGQGTLVTVSS
VL: DIQMTQSPSSLSASVGDRVTITCLASEGISSYLAWYQQKPGKAPKLLIYGANSLQTGVPSRFSGSGSATDYTLTISSLQPEDFATYYCQQSYKFPNTFGQGTKVEVK

EC50 of neutralizing IL-5-induced TF-1 cell proliferation (IL-5 [8]): 0.000336 µM
EC50 (IL-5 [9]): 0.00691 µM
B16: non-humanized anti-IL-5 single domain antibody 2B3 (VHH)
VHH: QVQLVESGGGSVQAGGSLRLSCAASGNTFSFSTYCMGWFRQSPGKEREGSLATIYDGSTAYAGSVKGRFTISVDNAKNILYLQMNNLKPEDTAMYYCAAAKYCMFWSDPSYWGQGTQVTVSS
